Assay results taken from the Immune Epitope Database (IEDB).

What was measured:
HLA-A*80:01 = experiment: IEDB peptide-MHC binding, purified MHC/direct/fluorescence; filed as Kd, often an IC50 or EC50 that approximates it; ≥ and ≤ were set here for values at or beyond the usual limits of such assays
HLA-A*29:02 = experiment: IEDB peptide-MHC binding, purified MHC/competitive/fluorescence; filed as Kd, often an IC50 or EC50 that approximates it; ≥ and ≤ were set here for values at or beyond the usual limits of such assays
HLA-A*01:01 = experiment: as above
HLA-B*58:01 = experiment: as above
HLA-C*05:01 = experiment: IEDB peptide-MHC binding, purified MHC/direct/fluorescence; filed as Kd, often an IC50 or EC50 that approximates it; ≥ and ≤ were set here for values at or beyond the usual limits of such assays; conditions: source organism: Listeria monocytogenes serotype 4b str. H7858
HLA-C*12:03 = experiment: as above
HLA-C*03:03 = experiment: as above
HLA-B*15:02 = experiment: IEDB peptide-MHC binding, purified MHC/competitive/fluorescence; filed as Kd, often an IC50 or EC50 that approximates it; ≥ and ≤ were set here for values at or beyond the usual limits of such assays
HLA-B*15:17 = experiment: as above
HLA-A*03:01 = experiment: as above
HLA-A*68:02 = experiment: as above
HLA-B*39:01 = experiment: as above
HLA-A*02:12 = experiment: as above
HLA-A*02:11 = experiment: as above
HLA-B*46:01 = experiment: as above
HLA-A*02:01 [1] = experiment: as above
HLA-A*02:16 = experiment: as above
HLA-B*15:01 [2] = experiment: as above
HLA-A*02:19 = experiment: as above
HLA-A*69:01 = experiment: as above
HLA-A*23:01 = experiment: as above
HLA-A*24:03 = experiment: as above
HLA-B*51:01 = experiment: as above
HLA-A*26:01 = experiment: as above
HLA-A*02:03 = experiment: as above
HLA-B*57:01 = experiment: as above
HLA-B*18:01 = experiment: as above
HLA-B*27:03 = experiment: as above
HLA-A*31:01 = experiment: as above; conditions: source organism: Entamoeba histolytica HM-1:IMSS
HLA-C*15:02 = experiment: IEDB peptide-MHC binding, purified MHC/direct/fluorescence; filed as Kd, often an IC50 or EC50 that approximates it; ≥ and ≤ were set here for values at or beyond the usual limits of such assays
HLA-B*07:02 [3] = experiment: IEDB peptide-MHC binding, purified MHC/competitive/fluorescence; filed as Kd, often an IC50 or EC50 that approximates it; ≥ and ≤ were set here for values at or beyond the usual limits of such assays
HLA-C*14:02 = experiment: IEDB peptide-MHC binding, purified MHC/direct/fluorescence; filed as Kd, often an IC50 or EC50 that approximates it; ≥ and ≤ were set here for values at or beyond the usual limits of such assays; conditions: source organism: Homo sapiens
HLA-C*07:02 = experiment: as above
HLA-A*24:02 = experiment: IEDB peptide-MHC binding, purified MHC/competitive/fluorescence; ≥ and ≤ were set here for values at or beyond the usual limits of such assays; conditions: source organism: Zaire ebolavirus
HLA-B*15:01 [4] = experiment: as above; conditions: source organism: Zaire ebolavirus
HLA-B*08:01 [5] = experiment: as above; conditions: source organism: Zaire ebolavirus
HLA-A*02:01 [6] = experiment: as above; conditions: source organism: Zaire ebolavirus
HLA-B*07:02 [7] = experiment: as above; conditions: source organism: Zaire ebolavirus
HLA-B*08:01 [8] = experiment: IEDB peptide-MHC binding, purified MHC/competitive/fluorescence; filed as Kd, often an IC50 or EC50 that approximates it; ≥ and ≤ were set here for values at or beyond the usual limits of such assays; conditions: source organism: Yersinia pestis Nepal516
[9] = source organism: human gammaherpesvirus 4
[10] = source organism: Listeria monocytogenes serotype 4b str. H7858
[11] = source organism: Orthomarburgvirus marburgense
[12] = source organism: Entamoeba histolytica HM-1:IMSS
[13] = source organism: Vibrio cholerae V52
[14] = source organism: Salmonella enterica subsp. enterica serovar Typhi
[15] = source organism: Shigella flexneri 5 str. 8401
[16] = source organism: Escherichia coli O139:H28 str. E24377A
[17] = source organism: Yersinia pestis Nepal516
[18] = source organism: Escherichia coli E22

AFFAERLYY
Kd (HLA-A*80:01; source organism: Mus musculus): 0.0195 µM | Kd (HLA-A*29:02; source organism: Mus musculus): 0.0002 µM | Kd (HLA-A*01:01; source organism: Mus musculus): ≥ 20 µM

ATVKGMQSY
Kd (HLA-B*58:01; [9]): 4.38 µM

FLMYPNNIF
Kd (HLA-C*05:01): 0.266 µM | Kd (HLA-C*12:03; [10]): 0.178 µM | Kd (HLA-C*03:03; [10]): 0.015 µM | Kd (HLA-B*15:02; [10]): 0.0057 µM

GIADFIIFK
Kd (HLA-B*15:17; [11]): ≥ 20 µM | Kd (HLA-A*03:01; [11]): 0.188 µM | Kd (HLA-A*68:02; [11]): ≥ 20 µM | Kd (HLA-A*29:02; [11]): ≥ 20 µM | Kd (HLA-B*39:01; [11]): ≥ 20 µM | Kd (HLA-A*02:12; [11]): ≥ 20 µM | Kd (HLA-A*02:11; [11]): ≥ 20 µM | Kd (HLA-B*46:01; [11]): ≥ 20 µM | Kd (HLA-A*02:01 [1]; [11]): ≥ 20 µM | Kd (HLA-A*02:16; [11]): ≥ 20 µM | Kd (HLA-B*15:01 [2]; [11]): ≥ 20 µM | Kd (HLA-A*02:19; [11]): ≥ 20 µM | Kd (HLA-A*69:01; [11]): ≥ 20 µM | Kd (HLA-A*23:01; [11]): ≥ 20 µM | Kd (HLA-A*24:03; [11]): ≥ 20 µM | Kd (HLA-B*51:01; [11]): ≥ 20 µM | Kd (HLA-A*26:01; [11]): ≥ 20 µM | Kd (HLA-A*02:03; [11]): ≥ 20 µM | Kd (HLA-B*57:01; [11]): ≥ 20 µM | Kd (HLA-B*18:01; [11]): ≥ 20 µM | Kd (HLA-B*27:03; [11]): ≥ 20 µM

HLWNHNQQM
Kd (HLA-B*15:02; source organism: Venezuelan equine encephalitis virus): 0.0499 µM

IGKMNKHYK
Kd (HLA-B*15:17; [12]): ≥ 20 µM | Kd (HLA-A*03:01; [12]): ≥ 20 µM | Kd (HLA-A*68:02; [12]): ≥ 20 µM | Kd (HLA-A*29:02; [12]): ≥ 20 µM | Kd (HLA-B*39:01; [12]): ≥ 20 µM | Kd (HLA-A*02:12; [12]): ≥ 20 µM | Kd (HLA-A*31:01): 0.16 µM | Kd (HLA-A*02:11; [12]): ≥ 20 µM | Kd (HLA-B*46:01; [12]): ≥ 20 µM | Kd (HLA-A*02:01 [1]; [12]): ≥ 20 µM | Kd (HLA-A*02:16; [12]): ≥ 20 µM | Kd (HLA-B*15:01 [2]; [12]): ≥ 20 µM | Kd (HLA-A*02:19; [12]): ≥ 20 µM | Kd (HLA-A*69:01; [12]): ≥ 20 µM | Kd (HLA-A*24:03; [12]): ≥ 20 µM | Kd (HLA-B*51:01; [12]): ≥ 20 µM | Kd (HLA-A*26:01; [12]): ≥ 20 µM | Kd (HLA-A*02:03; [12]): ≥ 20 µM | Kd (HLA-B*57:01; [12]): ≥ 20 µM | Kd (HLA-B*18:01; [12]): ≥ 20 µM | Kd (HLA-B*27:03; [12]): ≥ 20 µM

IGYRLGMGK
Kd (HLA-B*15:17; [13]): ≥ 20 µM | Kd (HLA-A*03:01; [13]): 0.0135 µM | Kd (HLA-A*68:02; [13]): ≥ 20 µM | Kd (HLA-A*29:02; [13]): ≥ 20 µM | Kd (HLA-B*39:01; [13]): ≥ 20 µM | Kd (HLA-A*02:12; [13]): ≥ 20 µM | Kd (HLA-A*02:11; [13]): ≥ 20 µM | Kd (HLA-B*46:01; [13]): ≥ 20 µM | Kd (HLA-A*02:01 [1]; [13]): ≥ 20 µM | Kd (HLA-A*02:16; [13]): ≥ 20 µM | Kd (HLA-B*15:01 [2]; [13]): ≥ 20 µM | Kd (HLA-A*02:19; [13]): ≥ 20 µM | Kd (HLA-A*69:01; [13]): ≥ 20 µM | Kd (HLA-A*23:01; [13]): ≥ 20 µM | Kd (HLA-A*24:03; [13]): ≥ 20 µM | Kd (HLA-B*51:01; [13]): ≥ 20 µM | Kd (HLA-A*26:01; [13]): ≥ 20 µM | Kd (HLA-A*02:03; [13]): ≥ 20 µM | Kd (HLA-B*57:01; [13]): ≥ 20 µM | Kd (HLA-B*18:01; [13]): ≥ 20 µM | Kd (HLA-B*27:03; [13]): ≥ 20 µM

ILLARLFLY
Kd (HLA-A*80:01; [9]): 0.0033 µM | Kd (HLA-A*03:01; [9]): 2.06 µM

ITLKVFAGY
Kd (HLA-A*03:01; [14]): 2.69 µM | Kd (HLA-B*58:01; [14]): 0.0116 µM | Kd (HLA-A*26:01; [14]): 0.287 µM

KVHLTPAQL
Kd (HLA-C*15:02; [15]): ≥ 20 µM | Kd (HLA-B*07:02 [3]; [15]): 0.154 µM

LPRDASQIT
Kd (HLA-B*51:01; [16]): ≥ 20 µM | Kd (HLA-B*07:02 [3]; [16]): 0.0974 µM

MLYPRVWPY
Kd (HLA-C*15:02; source organism: Homo sapiens): ≥ 20 µM | Kd (HLA-C*14:02): 0.246 µM | Kd (HLA-C*07:02; source organism: Homo sapiens): 0.238 µM | Kd (HLA-A*29:02; source organism: Homo sapiens): ≤ 0.0001 µM | Kd (HLA-A*01:01; source organism: Homo sapiens): 1.08 µM

MMQGTPYVY
Kd (HLA-B*15:02; source organism: Vibrio antiquarius): 0.0059 µM

PVMNHKNKF
IC50 (HLA-A*24:02): 0.106 µM | IC50 (HLA-B*15:01 [4]): ≥ 364 µM | IC50 (HLA-B*08:01 [5]): 11 µM

RTAKVKNEV
IC50 (HLA-A*24:02): ≥ 75.3 µM | IC50 (HLA-A*02:01 [6]): 57.2 µM | IC50 (HLA-B*07:02 [7]): 10.3 µM | IC50 (HLA-B*08:01 [5]): 56.8 µM

SDMDYHKIL
IC50 (HLA-A*24:02): ≥ 145 µM | IC50 (HLA-A*02:01 [6]): ≥ 241 µM | IC50 (HLA-B*08:01 [5]): ≥ 177 µM

SLFVRSAGQ
Kd (HLA-B*15:02; source organism: Burkholderia mallei JHU): ≥ 20 µM

VVEKQSGLY
Kd (HLA-A*80:01; source organism: West Nile virus): 0.0008 µM

YIYTRSFQM
Kd (HLA-C*07:02; [17]): 0.163 µM | Kd (HLA-A*02:01 [1]; [17]): 0.0004 µM | Kd (HLA-B*15:01 [2]; [17]): 0.351 µM | Kd (HLA-A*26:01; [17]): 0.593 µM | Kd (HLA-B*08:01 [8]): 0.0487 µM

YMNGTMSQV
Kd (HLA-C*15:02; source organism: Homo sapiens): 0.372 µM | Kd (HLA-C*12:03; source organism: Homo sapiens): 0.088 µM | Kd (HLA-C*03:03; source organism: Homo sapiens): 0.371 µM

YQTYVSPGA
Kd (HLA-B*15:17; [18]): ≥ 20 µM | Kd (HLA-A*03:01; [18]): ≥ 20 µM | Kd (HLA-A*29:02; [18]): ≥ 20 µM | Kd (HLA-A*02:12; [18]): ≥ 20 µM | Kd (HLA-A*02:11; [18]): ≥ 20 µM | Kd (HLA-B*46:01; [18]): ≥ 20 µM | Kd (HLA-A*02:01 [1]; [18]): 0.0004 µM | Kd (HLA-A*02:16; [18]): ≤ 0.0001 µM | Kd (HLA-B*15:01 [2]; [18]): ≥ 20 µM | Kd (HLA-A*02:19; [18]): ≥ 20 µM | Kd (HLA-A*69:01; [18]): ≥ 20 µM | Kd (HLA-A*23:01; [18]): ≥ 20 µM | Kd (HLA-A*24:03; [18]): ≥ 20 µM | Kd (HLA-B*51:01; [18]): ≥ 20 µM | Kd (HLA-A*26:01; [18]): ≥ 20 µM | Kd (HLA-B*57:01; [18]): ≥ 20 µM | Kd (HLA-B*18:01; [18]): ≥ 20 µM | Kd (HLA-B*27:03; [18]): ≥ 20 µM
